Values belong to the substance of their own block, whether it stands above or below them.
Key:
[1] = molecular target: H3-H4 tetramer of S. cerevisiae (on DNA: H3-H4 tetrasome) (S. cerevisiae) (UniProt P61830); experiment: single-molecule photobleaching step counting, fit of a probability model; H2A^AF488 foci at the chromatinized ARS1 origin, imaged immediately after introduction into the flow cell; p_label fixed at 0.81
[2] = molecular target: H3-H4 tetramer of S. cerevisiae (on DNA: H3-H4 tetrasome) (S. cerevisiae) (UniProt P61830); experiment: single-molecule photobleaching step counting, fit of a probability model; H2A^AF488 foci, chromatinized ARS1 origin, after 30 min bulk incubation in buffer only
[3] = molecular target: H3-H4 tetramer of S. cerevisiae (on DNA: H3-H4 tetrasome) (S. cerevisiae) (UniProt P61830); experiment: single-molecule photobleaching step counting, fit of a probability model; H2A^AF488 foci, chromatinized ARS1 origin, after 30 min bulk incubation with ORC, Cdc6 and MCM^JF646/Cdt1
[4] = molecular target: H3-H4 tetramer of S. cerevisiae (on DNA: H3-H4 tetrasome) (S. cerevisiae) (UniProt P61830); experiment: single-molecule photobleaching step counting, fit of a probability model; H2A^AF488 foci, chromatinized mutated origin, after 30 min bulk incubation with ORC^JF646 and Cdc6
[5] = molecular target: H3-H4 tetramer of S. cerevisiae (on DNA: H3-H4 tetrasome) (S. cerevisiae) (UniProt P61830); experiment: single-molecule photobleaching step counting, fit of a probability model; H2A^AF488 foci, chromatinized mutated origin, after 30 min bulk incubation with ORC, Cdc6 and MCM^JF646/Cdt1
[6] = molecular target: H3-H4 tetramer of S. cerevisiae (on DNA: H3-H4 tetrasome) (S. cerevisiae) (UniProt P61830); experiment: single-molecule photobleaching step counting, fit of a probability model; H2A^AF488 foci, chromatinized ARS1 origin, after 30 min bulk incubation with ORC^JF646 and Cdc6
[7] = tested on: ORC-JF646 (Origin Recognition Complex, HaloTag-JF646 on N-terminus of Orc3) (Saccharomyces cerevisiae); experiment: single-molecule fluorescence with optical tweezers; settings: Bulk loading: 25 mM HEPES-KOH pH 7.6, 10 mM MgOAc, 100 mM KOAc, 0.02% NP40, 5% glycerol, 1 mM DTT, 5 mM ATP or ATPgS, 30 C, single-molecule buffer not …; for binding signal (% of foci in origin bin): 5 nM ORC, 5 s rapid binding, 30 min; for binding signal (% of DNA molecules with ORC): Cdc6, ATP, 30 min stable binding
[8] = tested on: Histone octamer H2A(K120C)-AF488/H2B/H3/H4 (Saccharomyces cerevisiae); experiment: single-molecule fluorescence of reconstituted nucleosomes; settings: 100 mM KOAc, 0.02% NP40, 5% glycerol, 1 mM DTT, 5 mM ATP or ATPgS, 30 C, single-molecule buffer not …

ph2a (probability of H2A-H2B dimer association with the H3-H4 tetrasome) [1]: 0.77
ph2a (probability of H2A-H2B dimer association with the H3-H4 tetrasome) [2]: 0.73
ph2a (probability of H2A-H2B dimer association with the H3-H4 tetrasome) [3]: 0.84
ph2a (probability of H2A-H2B dimer association with the H3-H4 tetrasome) [4]: 0.6
ph2a (probability of H2A-H2B dimer association with the H3-H4 tetrasome) [5]: 0.91
ph2a (probability of H2A-H2B dimer association with the H3-H4 tetrasome) [6]: 0.81
Substance: H2A^AF488-H2B dimer (S. cerevisiae H2A K120C labelled with AF488, with H2B) (from UniProt P04911 2-132; P02293 5-131) (complex)

Substance: 10.4 kbp DNA, ARS1 origin, bare
binding signal (% of foci in origin bin) [7]: 30
binding signal (% of DNA molecules with ORC) ([7]; 61% of foci in origin bin): 79
binding signal (% of H2A foci in origin bin) ([8]; after 30 min with ORC-JF646 and Cdc6, Bulk loading: 25 mM HEPES-KOH pH 7.6, 10 mM MgOAc): 49
binding signal (% of H2A foci in origin bin) ([8]; salt-gradient dialysis, after 30 min in buffer, chromatinized form is N2, Bulk loading: 25 mM HEPES-KOH pH 7.6, 10 mM MgOAc): 80

Substance: 10.4 kbp DNA, ARS1 origin, chromatinized (two nucleosomes)
binding signal (% of foci in origin bin) ([7]; nucleosomes): 39
binding signal (% of DNA molecules with ORC) ([7]; nucleosomes, 51% of foci in origin bin): 41
